The results in this text go back to article PMC11418112.

Experiment [1] deals with T1, SpoIIAA-P (phosphorylated SpoIIAA) (B. subtilis) (UniProt P10727).
T1 sequence (chain, phosphoserine at 58 (32P in the labelled tracer)): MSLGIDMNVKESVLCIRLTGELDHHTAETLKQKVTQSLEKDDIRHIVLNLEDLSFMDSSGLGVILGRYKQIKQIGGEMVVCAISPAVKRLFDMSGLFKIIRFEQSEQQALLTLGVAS

In experiment [2] the target is T2, RsbV-P (phosphorylated RsbV) (B. subtilis) (UniProt P17903).
T2 sequence (chain, phosphoserine at 56 (32P)): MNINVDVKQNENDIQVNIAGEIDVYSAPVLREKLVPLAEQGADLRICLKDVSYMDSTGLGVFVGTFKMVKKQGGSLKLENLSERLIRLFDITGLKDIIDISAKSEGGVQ

Experiment [3] deals with T1, SpoIIAA-P (phosphorylated SpoIIAA) (B. subtilis). This is another data set of the same source.
Experiment [4] has the same target. The source holds these as a separate data set.
In experiment [5] the target is T3, SpoIIAA^R67T, phosphorylated (B. subtilis) (UniProt P10727).
T3 sequence (chain, phosphoserine at 58): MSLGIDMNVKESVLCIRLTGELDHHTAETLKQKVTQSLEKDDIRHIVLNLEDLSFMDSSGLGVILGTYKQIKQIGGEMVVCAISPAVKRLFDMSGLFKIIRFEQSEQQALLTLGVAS

Experiment [6] deals with T1, SpoIIAA-P (phosphorylated SpoIIAA) (B. subtilis). The source holds these as a separate data set.
The target in experiment [7] is T2, RsbV-P (phosphorylated RsbV) (B. subtilis). This is another data set of the same source.
For experiment [8] the target is unchanged. This is another data set of the same source.
For experiment [9], the target named is T1, SpoIIAA-P (phosphorylated SpoIIAA) (B. subtilis). The source holds these as a separate data set.
Experiment [10] deals with T3, SpoIIAA^R67T, phosphorylated (B. subtilis). This is another data set of the same source.

Where two headings read alike, the source gives them in different places.

B1: SpoIIE phosphatase domain (SpoIIE^590-827) (domain or fragment)
chain: SYRVSTGAAHAAKGGGLVSGDSYSMMELGARKYAAAISDGMGNGARAHFESNETIKLLEKILESGIDEKIAIKTINSILSLRTTDEIYSTLDLSIIDLQDASCKFLKVGSTPSFIKRGDQVMKVQASNLPIGIINEFDVEVVSEQLKAGDLLIMMSDGIFEGPKHVENHDLWMKRKMKGLKTNDPQEIADLLMEEVIRTRSGQIEDDMTVVVVRIDHNTPKWASIPVPAIFQNKQEIS
On to B1, for which, in [1], the KM for SpoIIAA-P (multiple turnover, 10 mM MgCl2, Michaelis-Menten fit) was 28.7 µM; the kcat of SpoIIAA-P dephosphorylation (multiple turnover, 10 mM MgCl2, Michaelis-Menten fit) stood at 0.39 min^–1; the kcat/KM of SpoIIAA-P dephosphorylation (multiple turnover, 0.1 μM SpoIIE, 10 mM MgCl2) was found to be 0.011 μM^–1 min^–1. Also, in [2], the KM for RsbV-P (single turnover, varying SpoIIE, 10 mM MnCl2, Michaelis-Menten fit) turned out to be 12.8 µM; the kcat of RsbV-P dephosphorylation (single turnover, 10 mM MnCl2, Michaelis-Menten fit) came to 0.0086 min^–1; the kcat/KM of RsbV-P dephosphorylation (single turnover, 0.15 μM RsbV-P, 10 mM MnCl2) worked out at 0.00045 μM^–1 min^–1. Further, the KM for SpoIIAA-P as printed in the legend of Figure 4B (multiple turnover, 10 mM MgCl2) in experiment [3] stood at 0.39 µM. Also, the kobs of SpoIIAA-P dephosphorylation over time (0.1 μM SpoIIE, 0.5 μM SpoIIAA-P, 10 mM MnCl2) in [4] stood at 0.98 min^–1. In experiment [5], this molecule displayed a kobs of SpoIIAA^R67T dephosphorylation over time (0.1 μM SpoIIE, 10 mM MnCl2) of 0.056 min^–1.

B2: SpoIIE^E675S (phosphatase domain, SpoIIE^590-827) (domain or fragment)
chain: SYRVSTGAAHAAKGGGLVSGDSYSMMELGARKYAAAISDGMGNGARAHFESNETIKLLEKILESGIDEKIAIKTINSILSLRTTDSIYSTLDLSIIDLQDASCKFLKVGSTPSFIKRGDQVMKVQASNLPIGIINEFDVEVVSEQLKAGDLLIMMSDGIFEGPKHVENHDLWMKRKMKGLKTNDPQEIADLLMEEVIRTRSGQIEDDMTVVVVRIDHNTPKWASIPVPAIFQNKQEIS
B2 came in with a fold decrease in activity toward SpoIIAA-P with manganese as the metal cofactor, against SpoIIE (Fig. S5) in [6] of 2 fold. In [1], the KM for SpoIIAA-P (multiple turnover, 10 mM MgCl2, Michaelis-Menten fit) was 18.3 µM; the kcat of SpoIIAA-P dephosphorylation (multiple turnover, 10 mM MgCl2, Michaelis-Menten fit) amounted to 0.02 min^–1; the kcat/KM of SpoIIAA-P dephosphorylation (multiple turnover, 0.1 μM SpoIIE, 10 mM MgCl2) was 0.001 μM^–1 min^–1. Further, in experiment [2], the KM for RsbV-P (single turnover, varying SpoIIE, 10 mM MnCl2, Michaelis-Menten fit) is 95.7 µM; the kcat of RsbV-P dephosphorylation (single turnover, 10 mM MnCl2, Michaelis-Menten fit) is 0.063 min^–1; the kcat/KM of RsbV-P dephosphorylation (single turnover, 0.15 μM RsbV-P, 10 mM MnCl2) was 0.00058 μM^–1 min^–1. Further, the kobs of SpoIIAA-P dephosphorylation over time (0.1 μM SpoIIE, 0.5 μM SpoIIAA-P, 10 mM MnCl2) in experiment [4] was found to be 0.23 min^–1. This molecule also displayed a kobs of SpoIIAA^R67T dephosphorylation over time (0.1 μM SpoIIE, 10 mM MnCl2) in [5] of 0.086 min^–1.

B3: SpoIIE^3X (triple mutation of E675S, I723S, and P752R; phosphatase domain) (domain or fragment)
chain: SYRVSTGAAHAAKGGGLVSGDSYSMMELGARKYAAAISDGMGNGARAHFESNETIKLLEKILESGIDEKIAIKTINSILSLRTTDSIYSTLDLSIIDLQDASCKFLKVGSTPSFIKRGDQVMKVQASNLPIGISNEFDVEVVSEQLKAGDLLIMMSDGIFEGRKHVENHDLWMKRKMKGLKTNDPQEIADLLMEEVIRTRSGQIEDDMTVVVVRIDHNTPKWASIPVPAIFQNKQEIS
On to B3, for which, in experiment [7], the kcat/KM of RsbV-P dephosphorylation, fold change against SpoIIE (Fig. 4C) amounted to 5 fold. Besides, in experiment [8], the KM for RsbV-P (single turnover, varying SpoIIE, 10 mM MnCl2, Michaelis-Menten fit) came out at 29.1 µM and the kcat of RsbV-P dephosphorylation (single turnover, 10 mM MnCl2, Michaelis-Menten fit) was 0.043 min^–1. In experiment [3], the kcat of SpoIIAA-P dephosphorylation (multiple turnover, 10 mM MgCl2, Michaelis-Menten fit) worked out at 0.011 min^–1 and the kcat/KM of SpoIIAA-P dephosphorylation (multiple turnover, 0.1 μM SpoIIE, 10 mM MgCl2) stood at 0.00011 μM^–1 min^–1.

B4: SpoIIE^I723S (phosphatase domain, SpoIIE^590-827) (domain or fragment)
chain: SYRVSTGAAHAAKGGGLVSGDSYSMMELGARKYAAAISDGMGNGARAHFESNETIKLLEKILESGIDEKIAIKTINSILSLRTTDEIYSTLDLSIIDLQDASCKFLKVGSTPSFIKRGDQVMKVQASNLPIGISNEFDVEVVSEQLKAGDLLIMMSDGIFEGPKHVENHDLWMKRKMKGLKTNDPQEIADLLMEEVIRTRSGQIEDDMTVVVVRIDHNTPKWASIPVPAIFQNKQEIS
The molecule B4 returned a fold decrease in rate of dephosphorylation of SpoIIAA-P, against SpoIIE (Fig. S6) in experiment [9] of 2 fold. The fold decrease in rate of dephosphorylation of SpoIIAA^R67T, against SpoIIE (Fig. S6) in experiment [10] amounted to 2 fold. Also, in experiment [1], the KM for SpoIIAA-P (multiple turnover, 10 mM MgCl2, Michaelis-Menten fit) turned out to be 29.1 µM; the kcat of SpoIIAA-P dephosphorylation (multiple turnover, 10 mM MgCl2, Michaelis-Menten fit) was determined as 0.036 min^–1; the kcat/KM of SpoIIAA-P dephosphorylation (multiple turnover, 0.1 μM SpoIIE, 10 mM MgCl2) came out at 0.001 μM^–1 min^–1. For the same molecule, in [2], the KM for RsbV-P (single turnover, varying SpoIIE, 10 mM MnCl2, Michaelis-Menten fit) was found to be 47.6 µM; the kcat of RsbV-P dephosphorylation (single turnover, 10 mM MnCl2, Michaelis-Menten fit) amounted to 0.018 min^–1; the kcat/KM of RsbV-P dephosphorylation (single turnover, 0.15 μM RsbV-P, 10 mM MnCl2) came to 0.00028 μM^–1 min^–1.

B5: SpoIIE^P752R (phosphatase domain, SpoIIE^590-827) (domain or fragment)
chain: SYRVSTGAAHAAKGGGLVSGDSYSMMELGARKYAAAISDGMGNGARAHFESNETIKLLEKILESGIDEKIAIKTINSILSLRTTDEIYSTLDLSIIDLQDASCKFLKVGSTPSFIKRGDQVMKVQASNLPIGIINEFDVEVVSEQLKAGDLLIMMSDGIFEGRKHVENHDLWMKRKMKGLKTNDPQEIADLLMEEVIRTRSGQIEDDMTVVVVRIDHNTPKWASIPVPAIFQNKQEIS
As to B5, in [1], the KM for SpoIIAA-P (multiple turnover, 10 mM MgCl2, Michaelis-Menten fit) came out at 38.6 µM; the kcat of SpoIIAA-P dephosphorylation (multiple turnover, 10 mM MgCl2, Michaelis-Menten fit) amounted to 0.15 min^–1; the kcat/KM of SpoIIAA-P dephosphorylation (multiple turnover, 0.1 μM SpoIIE, 10 mM MgCl2) came to 0.0039 μM^–1 min^–1. In experiment [2], the KM for RsbV-P (single turnover, varying SpoIIE, 10 mM MnCl2, Michaelis-Menten fit) came out at 79.3 µM; the kcat of RsbV-P dephosphorylation (single turnover, 10 mM MnCl2, Michaelis-Menten fit) worked out at 0.15 min^–1; the kcat/KM of RsbV-P dephosphorylation (single turnover, 0.15 μM RsbV-P, 10 mM MnCl2) is 0.0035 μM^–1 min^–1.
